Our source for the stoichiometry N values is article PMC7105229.

Like-named read-outs stand apart in the source and are kept apart here.

In test [1] the target is Vibrio vulnificus FAN1 (Vibrio vulnificus). The experiment in a line: SEC. For orientation: In gel filtration, larger molecules generally elute earlier.
For test [2] the target is unchanged. As to the kind of experiment: SEC. The source holds these as a separate data set.

On to Vibrio vulnificus FAN1 (enzyme), for which the stoichiometry N in test [1] and in test [2] was 2 each time.
